Biological target: receptor protein(s) / binding site of Cry1Ab core toxin on Brush Border Membrane Vesicles (BBMV's) f (Spodoptera frugiperda)

Substance: Cry1Ab core toxin protein (activated core toxin prepared by trypsin digestion of the Cry1Ab protein) (from UniProt P0A370 29-612)
- IC50: 5 nM

From patent US20120311745A1
